The target in test [1] is T1, recombinant human B7-H4-huIgG1 (human).
T1 construct: the entry begins with the N-terminal leader (MASLG...), no cleavage site is stated; also called B7-H4-hulgGl; B7-H4-extracellular domain (ECD)
As to the kind of experiment: BLI and SPR.

For a further test, the target named is T2, human B7-H4 on cells (human, UniProt Q7Z7D3 25-282).
T2 construct: Full-length human B7-H4 on transfected HEK293T cells (also aAPCs) or endogenous on SK-BR-3 breast cancer cells; also called SK-BR-3 (endogenous human B7-H4)
T2 sequence: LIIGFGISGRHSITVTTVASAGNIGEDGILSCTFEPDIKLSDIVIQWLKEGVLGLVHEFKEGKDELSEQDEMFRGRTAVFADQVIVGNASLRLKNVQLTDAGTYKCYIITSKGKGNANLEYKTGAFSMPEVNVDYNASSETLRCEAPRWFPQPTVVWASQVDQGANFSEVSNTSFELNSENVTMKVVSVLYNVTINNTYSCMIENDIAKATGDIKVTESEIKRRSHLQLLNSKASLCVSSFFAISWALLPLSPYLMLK
As to the kind of experiment: flow cytometry titration on SK-BR-3 cells (endogenous human B7-H4), GEO MFI against antibody concentration.

The next test deals with T3, mouse B7-H4 on cells (mouse, UniProt Q7TSP5 25-257).
T3 construct: Full-length, on transfected HEK293T cells
T3 sequence: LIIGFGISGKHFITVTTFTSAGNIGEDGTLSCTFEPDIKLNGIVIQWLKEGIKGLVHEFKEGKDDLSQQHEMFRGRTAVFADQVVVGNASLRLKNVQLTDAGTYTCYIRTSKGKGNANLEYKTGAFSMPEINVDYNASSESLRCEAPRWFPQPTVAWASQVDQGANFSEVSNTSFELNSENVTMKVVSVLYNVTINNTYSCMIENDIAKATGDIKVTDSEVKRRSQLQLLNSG
In words: flow cytometry titration on HEK293T cells transfected with mouse B7-H4 (293-mouseB7-H4), GEO MFI against antibody concentration.

In a further test the target is T4, rat B7-H4 on cells (rat, UniProt Q501W4 25-257).
T4 construct: Full-length, on transfected HEK293T cells
T4 sequence: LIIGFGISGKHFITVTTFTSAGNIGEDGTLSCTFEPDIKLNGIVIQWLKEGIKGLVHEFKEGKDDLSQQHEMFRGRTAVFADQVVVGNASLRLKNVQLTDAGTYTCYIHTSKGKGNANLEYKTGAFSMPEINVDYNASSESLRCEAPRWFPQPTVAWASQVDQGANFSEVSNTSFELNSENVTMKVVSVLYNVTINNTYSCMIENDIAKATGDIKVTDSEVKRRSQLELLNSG
As to the kind of experiment: flow cytometry titration on HEK293T cells transfected with rat B7-H4 (293-ratB7-H4), GEO MFI against antibody concentration.

In test [2] the target is T5, cynomolgus monkey B7-H4 on cells (cynomolgus monkey, UniProt Q7Z7D3 25-282 (human entry)).
T5 construct: Full-length, on transfected HEK293T cells
T5 chain: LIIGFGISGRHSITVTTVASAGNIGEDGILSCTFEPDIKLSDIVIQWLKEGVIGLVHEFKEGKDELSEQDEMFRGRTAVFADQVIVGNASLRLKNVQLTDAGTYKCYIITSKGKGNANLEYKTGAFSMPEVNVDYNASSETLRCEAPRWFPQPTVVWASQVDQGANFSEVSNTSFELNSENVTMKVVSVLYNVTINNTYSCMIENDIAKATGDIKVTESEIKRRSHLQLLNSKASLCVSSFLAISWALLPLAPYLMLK
As to the kind of experiment: flow cytometry titration on HEK293T cells transfected with cynomolgus monkey B7-H4 (293-cynoB7-H4), GEO MFI against antibody concentration.
Experimental: (§1) Following incubation, cells were pelleted, washed and incubated with a secondary labeling antibody and samples were acquired on a flow cytometer. Data was analyzed using the FlowJo software and MFI was plotted vs. antibody concentration. The EC50 cell binding potency was calculated using nonlinear regression curve fit (GraphPad Prism).

Experimental for human B7-H4 on cells: as §1
Experimental for mouse B7-H4 on cells: as §1
Experimental for rat B7-H4 on cells: as §1

B1: antibody 15462 (antibody, human IgG1, kappa, V domains shown)
VH: QLQLQESGPGLVKPSETLSLTCTVSGGSISSSSYYWGWIRQPPGKGLEWIGNIYYSGSTYYNPSLKSRVTISVDTSKNQFSLKLSSVTAADTAVYYCAREGSYTTVLNVWGQGTMVTVSS
VL: EIVLTQSPGTLSLSPGERATLSCRASQSVSSSYLAWYQQKPGQAPRLLIYGASSRATGIPDRFSGSGSGTDFTLTISRLEPEDFAVYYCQQAASYPLTFGGGTKVEIKR
notes: human IgG1/kappa
Regarding B1, the binding result in test [1] is “binds”.

B2: antibody 20506 (antibody, V domains shown)
VH: QLQLQESGPGLVKPSETLSLTCTASGGSISHGGYYWSWIRQHPGKGLEWIGNIYYSGSTYYNPSLKSRVTMSVDTSKNQFSLKLSSVTAADTAVYYCARESSTISADFDLWGRGTLVTVSS
VL: DIQMTQSPSSVSASVGDRVTITCRASQGISRWLAWYQQKPGKAPKLLIYAASSLQSGVPSRFSGSGSGTDFTLTISSLQPEDFATYYCQQAHTFPYTFGGGTKVEIKR
notes: human IgG1/kappa
Regarding B2, the “EC50 (read off the curve)” value is around 2 nM with human B7-H4 on cells, around 8 nM in the test with mouse B7-H4 on cells and around 5 nM in test [2]. Moreover, in the test with rat B7-H4 on cells, the binding result is reported as “binds”.

B3: antibody 15483 (antibody, human IgG1, kappa, V domains shown)
VH: QVQLQESGPGLVKPSQTLSLTCTVSGGSISSGGYYWSWIRQHPGKGLEWIGNIYYSGSTYYNPSLKSRVTISVDTSKNQFSLKLSSVTAADTAVYYCARGLSTIDEAFDPWGQGTLVTVSS
VL: not shown
notes: human IgG1/kappa
As to B3, in test [1], the binding result is on record as “binds”.

For the origin of these results see US20200255528A1 (Five Prime, published 2020).
